System: peptide library, one residue held at a place counted from the Y acceptor
Assay: relative phosphorylation of the sub-library (ratio to the mean residue at this position); higher = residue favoured
Procedure, shortened: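 Purified recombinant kinases were given 50 μM ATP with γ-32P-ATP and biotinylated Tyr-centred peptide library mixtures for 90 min in 384-well plates. Peptides bound to streptavidin membranes were rinsed and quantified by phosphorimaging, and intensities were normalized per position by the sum of the 18 randomized residues (16 with the Ser/Thr-free library) and multiplied by that number. The reported values are phosphorylation relative to the mean randomized residue.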

PDGFRB, construct: aa557-end, human, sequence (P09619 557-1106, looked up): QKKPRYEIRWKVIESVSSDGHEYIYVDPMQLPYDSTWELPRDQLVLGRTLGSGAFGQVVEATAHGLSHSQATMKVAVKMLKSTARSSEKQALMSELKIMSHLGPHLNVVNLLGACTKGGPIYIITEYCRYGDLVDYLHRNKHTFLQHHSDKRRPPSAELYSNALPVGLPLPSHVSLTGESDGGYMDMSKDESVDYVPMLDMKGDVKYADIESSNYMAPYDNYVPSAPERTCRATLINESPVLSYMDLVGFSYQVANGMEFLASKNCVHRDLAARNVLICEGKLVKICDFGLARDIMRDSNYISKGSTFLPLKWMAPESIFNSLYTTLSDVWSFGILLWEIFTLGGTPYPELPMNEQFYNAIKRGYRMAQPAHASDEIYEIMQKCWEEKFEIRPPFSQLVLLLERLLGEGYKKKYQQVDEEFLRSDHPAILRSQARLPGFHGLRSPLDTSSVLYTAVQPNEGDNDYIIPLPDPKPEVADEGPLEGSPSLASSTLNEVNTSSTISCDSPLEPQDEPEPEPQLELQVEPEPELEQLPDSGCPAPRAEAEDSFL
PDGFRA, construct: aa550-end, human, sequence (P16234 550-1089, looked up): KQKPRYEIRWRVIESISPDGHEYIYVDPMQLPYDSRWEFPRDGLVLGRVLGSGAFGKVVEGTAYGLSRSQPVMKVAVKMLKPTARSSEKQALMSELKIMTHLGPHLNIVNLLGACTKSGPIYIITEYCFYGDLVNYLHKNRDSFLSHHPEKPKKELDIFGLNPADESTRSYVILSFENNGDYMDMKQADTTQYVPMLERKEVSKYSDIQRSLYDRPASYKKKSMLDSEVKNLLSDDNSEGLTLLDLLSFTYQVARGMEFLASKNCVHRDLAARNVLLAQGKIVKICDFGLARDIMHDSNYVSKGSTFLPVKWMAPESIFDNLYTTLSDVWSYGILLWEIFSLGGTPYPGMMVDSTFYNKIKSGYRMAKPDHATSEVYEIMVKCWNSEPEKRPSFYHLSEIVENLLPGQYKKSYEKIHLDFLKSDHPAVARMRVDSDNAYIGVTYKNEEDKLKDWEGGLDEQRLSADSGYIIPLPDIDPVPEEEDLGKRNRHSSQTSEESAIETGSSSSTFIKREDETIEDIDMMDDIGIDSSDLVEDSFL
NTRK3, construct: aa510-end, human, sequence (Q16288 510-839, looked up): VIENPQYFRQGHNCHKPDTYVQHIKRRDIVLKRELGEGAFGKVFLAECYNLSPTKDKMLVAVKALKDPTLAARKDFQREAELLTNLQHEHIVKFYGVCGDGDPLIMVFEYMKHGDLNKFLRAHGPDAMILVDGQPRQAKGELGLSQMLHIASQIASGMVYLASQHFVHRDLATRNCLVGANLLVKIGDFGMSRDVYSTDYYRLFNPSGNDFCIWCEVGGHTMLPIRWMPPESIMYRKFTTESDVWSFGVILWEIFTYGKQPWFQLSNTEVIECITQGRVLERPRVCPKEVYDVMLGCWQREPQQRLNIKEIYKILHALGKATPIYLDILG

NTRK3, construct: aa510-end, human (from UniProt Q16288)
relative phosphorylation
Conditions	at +1	at +2	at +3	at +4	at +5	at -1	at -2	at -3	at -4	at -5
A fixed	1.69	0.892	0.734	0.952	1.02	0.783	1.09	0.974	1.11	1.07
D fixed	0.49	0.785	0.467	0.945	0.698	2.14	1.23	1.2	1.15	1.18
E fixed	0.8	1.08	0.378	1.29	0.752	1.3	1.51	1.47	1.61	1.17
F fixed	1.63	1.19	1.77	1.06	1.2	0.893	0.809	1.08	1.33	0.973
G fixed	0.753	0.459	0.63	1.37	1.12	0.495	1.19	1.08	1.22	1.35
H fixed	1.43	0.887	0.884	1.15	1.21	1.47	1.1	1.26	0.913	0.977
I fixed	1.77	1.04	2.41	0.792	0.939	1.38	0.831	0.755	0.902	0.965
K fixed	0.14	0.714	0.269	0.674	0.867	0.149	0.635	0.559	0.657	0.717
L fixed	0.821	1.09	2.05	0.72	1	1.24	0.776	0.724	0.961	0.986
M fixed	1.53	1.08	1.55	1.11	0.978	0.745	0.654	0.775	0.753	1.02
N fixed	0.322	1.11	0.403	0.855	0.687	2.5	1.17	1.41	0.809	1.22
P fixed	0.269	0.874	0.906	1.63	1.6	1.11	1.12	0.994	1.14	1.18
Q fixed	0.686	1.02	0.485	0.908	0.702	0.756	1.11	0.791	1.01	0.943
R fixed	0.173	1.05	0.375	0.821	0.975	0.196	0.731	0.682	0.641	0.87
S fixed	0.83	1.02	0.77	0.869	0.961	0.701	1.2	1.14	0.748	0.814
T fixed	0.871	0.983	0.741	0.862	0.919	0.784	1	1.04	0.684	0.88
V fixed	1.95	0.976	1.64	0.786	0.807	0.872	0.87	0.738	0.823	0.734
W fixed	1.85	1.76	1.54	1.21	1.55	0.48	0.989	1.32	1.53	0.951
pThr fixed	1.61	0.745	0.374	0.914	0.625	0.999	1	0.982	0.995	0.973
pTyr fixed	2.92	1.81	0.837	1.17	0.96	7.29	1.63	1.86	1.64	1.2

PDGFRA, construct: aa550-end, human (from UniProt P16234)
relative phosphorylation
Conditions	at +1	at +2	at +3	at +4	at +5	at -1	at -2	at -3	at -4	at -5
A fixed	0.719	0.633	0.549	0.784	0.982	0.729	1.02	0.85	1.04	0.882
D fixed	0.273	0.434	0.302	0.674	0.645	1.32	0.947	0.97	0.898	0.812
E fixed	0.492	0.583	0.198	0.613	0.565	0.962	0.814	1.14	0.849	0.737
F fixed	2.05	1.59	1.61	1.05	1.35	1.37	0.853	0.954	1.21	1.11
G fixed	0.34	0.427	0.755	0.98	0.943	0.594	1.09	1.07	1.08	1.03
H fixed	1.43	1.02	0.972	1.34	1.1	1.47	1.01	1.09	0.962	1.15
I fixed	1.66	1.03	2.09	0.922	0.999	1.36	0.94	0.823	0.916	1.1
K fixed	0.699	1.12	1.02	1.05	1.08	0.509	0.835	0.959	1.06	0.995
L fixed	1.31	1.4	1.53	0.808	1.12	1.18	1	0.905	1.06	1.11
M fixed	1.13	1.2	1.13	1.17	1.02	0.892	1	0.967	0.878	1.1
N fixed	0.671	0.856	0.748	0.987	0.967	1.49	1.06	1.13	0.832	1.07
P fixed	0.31	0.863	0.928	1.11	0.943	0.931	1.34	1.08	1.06	0.885
Q fixed	1.25	0.928	0.632	1.01	0.92	1.07	1.13	1.11	1.07	1.04
R fixed	0.768	1.56	1.19	1.49	1.17	0.55	1.03	1.09	1.05	1.19
S fixed	0.655	0.633	0.604	0.91	0.932	0.694	1.03	1.02	0.801	0.817
T fixed	0.848	0.606	0.793	0.97	0.888	0.945	0.917	0.977	0.745	0.856
V fixed	1.92	0.851	1.62	0.839	0.98	1.02	0.954	0.778	0.894	0.86
W fixed	1.46	2.27	1.33	1.31	1.39	0.91	1.03	1.07	1.6	1.26
pThr fixed	0.498	0.395	0.237	0.467	0.482	0.675	0.695	0.693	0.744	0.786
pTyr fixed	1.75	1.49	0.414	0.788	0.626	1.09	0.876	1.12	1.16	1.02

PDGFRB, construct: aa557-end, human (from UniProt P09619)
relative phosphorylation
Conditions	at +1	at +2	at +3	at +4	at +5	at -1	at -2	at -3	at -4	at -5
A fixed	1.1	0.618	0.621	0.809	0.959	0.751	0.921	0.883	1.02	0.916
D fixed	0.263	0.542	0.332	0.816	0.825	1.46	0.994	1.26	1.11	1.13
E fixed	0.377	0.815	0.245	0.817	0.757	0.988	1.08	1.26	0.996	1.12
F fixed	1.49	1.41	1.54	0.86	0.93	1.33	0.75	0.807	1.01	0.902
G fixed	0.536	0.452	0.617	1.01	1.11	0.532	1.18	1.03	1.15	1.11
H fixed	1.25	0.986	0.975	1.25	1.04	1.96	1.27	1.08	1.08	1.08
I fixed	1.91	1.04	2.13	0.898	0.769	1.12	0.745	0.707	0.816	0.877
K fixed	0.561	1.02	0.776	1.17	1.15	0.534	1.02	0.997	1.05	1.06
L fixed	0.96	1.12	1.57	0.854	0.906	0.898	0.88	0.752	0.793	0.843
M fixed	0.964	1.2	1.3	0.978	0.852	0.818	0.76	0.857	0.816	0.892
N fixed	0.451	0.899	0.775	0.976	1.12	1.58	1.28	1.31	1.03	1.12
P fixed	0.259	0.732	0.857	0.909	1.08	0.742	1.05	1.08	1.16	0.995
Q fixed	1.05	0.969	0.715	1.14	1	1.11	1.23	1.12	1.14	1.21
R fixed	0.668	1.67	1.09	1.5	1.41	0.56	1.2	1.19	1.14	1.37
S fixed	0.828	0.663	0.733	0.958	1.2	0.696	1.16	1.08	0.87	0.916
T fixed	1.27	0.75	0.711	0.965	0.96	0.872	0.958	0.923	0.759	0.76
V fixed	2.65	0.96	1.58	0.881	0.768	1.05	0.752	0.744	0.776	0.721
W fixed	1.41	2.14	1.42	1.2	1.15	0.997	0.787	0.924	1.28	0.986
pThr fixed	0.867	0.439	0.272	0.505	0.575	0.682	0.836	0.865	0.87	0.845
pTyr fixed	1.15	1.84	0.4	0.809	0.751	1.06	1.08	1.19	1.29	1.01

— the supplement of paper PMC11136658
